# Source: the supplement of paper PMC12764529
# ± gives the half width of the 95% confidence interval.
# Assay: folding stability dG unfold (combined trypsin and chymotrypsin); higher = more stable
# Procedure: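 Folding stability of de novo designed mini-proteins (<80 aa, no Cys; designed by TrROS, TrMRF, ProteinMPNN and the joint model) was measured by cDNA display proteolysis with trypsin and chymotrypsin. Each protease was used at 11 concentrations in a threefold dilution series plus a no-protease condition. K50 was inferred by Bayesian fitting of sequencing counts, and dG unfold was derived against a sequence-predicted unfolded-state K50 (Tsuboyama et al. method). Sequences shown include variable-length N-terminal GS-type padding (SAGGSAGG...) inside a display construct carrying a PA tag. Rows were kept only if the AF2 dimer inter-PAE was >15, to exclude likely homo-oligomers.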
row,Sequence,folding stability dG unfold
1,SAGGSAGGSGPRAEELVVVNAPPGYRIPTPDGVPVTVPADAPNVLVRVTYGPGSSSVTVELVQSAGGSAGGS [r12_338_JUSTAS],< -1 kcal/mol
2,SAGMPVTTVTLYTTDPATGTPTATPGPISDVLALLKREGLPVEREEYDPSPQTHTVYSKGPGKDYIVAGSAG [r5_521_JUSTAS],< -1 kcal/mol
3,SAGGRPYKVKIKNPGSGKPYEMPIVDVHESDDNFYIMIQNPNGKNREAPLNNIDKAEVDEEGGTITLPSAGG [r13_211_TrROS],< -1 kcal/mol
4,SAGGPPIMLRIKHPGPDQREKIKEIAQDYPIEPVNPTPGEHEFRFNGPEQVNRLQDIAEKNGWKIEISAGGS [r16_88_TrROS],< -1 kcal/mol
5,SAGGSAGGSAGGSMLLTSQLLREFPNGEVRLETEVVELELPDEPLPLPKPKPRRDPEGRLVSAGGSAGGSAG [r3_252_JUSTAS],< -1 kcal/mol
6,SAGGSAGGSANVEVHPNPDGHVMVKIEMRMYRYDPDGKPKGPVEIKRSIHVDSPEEAKEFFSAGGSAGGSAG [r3_232_TrROS],< -1 kcal/mol
7,SAGGSAPIKITIHWDPENGMYRIKGKTPDGPVEYPFPRDELRNMPIENFADELNYEIKDVEIEPYPSAGGSA [r15_801_TrROS],< -1 kcal/mol
8,SAGGGVSYSFSSSGSGSTVTIYIPGSGKTLKRKVNPNDTITDIPSSAKPYKVVKEVNDEKPVEEELGSAGGS [r8_487_JUSTAS],-0.855 ± 0.72 kcal/mol
9,SAGGSAGGSAGMTVKEFTTEEEAKEAIEKAPKDVPLLLILKKPESEEEKVILYTGDKVIEEESAGGSAGGSA [r18_407_JUSTAS],< -1 kcal/mol
10,SAGGSAGGSAGGVVELPELPPGDDAEVTEVRTPSPGPVELVLRPPHSDETTTRTLSPERLSAGGSAGGSAGG [r7_342_JUSTAS],< -1 kcal/mol
11,SAGGSAGGSAGKPYRIKIEFYPPGNGQPMEHTFPVKSPEEAVNNLEKSFPNYQIRVDVVESAGGSAGGSAGG [r17_428_TrROS],< -1 kcal/mol
12,SAGGSAGGSAGGGLDDVPEEELRKILEEHGLPPEEVPPDTEVTLELPEGKPIKVRMTGRSAGGSAGGSAGGS [r10_623_JUSTAS],< -1 kcal/mol
13,SAGGMVVEEEPTKTVVEEVVPLPGGSPVRRITEEVLLPDGSVASRTTVFRPPGEREEETSLDPVPPEASAGG [r13_21_JUSTAS],< -1 kcal/mol
14,SAGPPNDVKPIEIPFKMENGSNFRAEIWRDPGDGKVFVPIEYPNPWHRKRMQNWARELAEEHGIDRVEPSAG [r5_99_TrROS],< -1 kcal/mol
15,SAGGSAGGSAGPESRTITLEDPGSLEEAIERALATLPPDTTVTVTFGDEPVELNAATLRALSAGGSAGGSAG [r3_50_JUSTAS],< -1 kcal/mol
16,SAGGSAGGSMFMVKINNGKEIPIPPEDLPPGETVEELADNIPPGMRNIEIYNWDGEEQEIPIDSAGGSAGGS [r20_161_TrROS],< -1 kcal/mol
17,SAGGSAGGSAGGKLRIFYPNPWQARWRAKTIQNEMMDNGYKIPPNVEIEIHPMRPDPGDWSAGGSAGGSAGG [r7_965_TrROS],< -1 kcal/mol
18,SAGGSAGGSEMKIDRIKIHDFDPDNGNYFVRIRNNGGPKHTFPVKNADELKEHLPGVKVEVIKSAGGSAGGS [r12_403_TrROS],< -1 kcal/mol
19,SAGGSAGGSPIMVRVERRDKDGKKKPVPTIPIPINNDDPEEALEWANEIAKKAGARDVRVEIWSAGGSAGGS [r12_569_TrROS],< -1 kcal/mol

row,Sequence,folding stability dG unfold
1,SAGGSAGGSAGGSELVGPEKAKEIIKEAYEKGYEEIPILLHLPNGETEEKIIKVPKNKISAGGSAGGSAGGS [r4_342_TrMRF],< -1 kcal/mol
2,SAPDLGSGTLLTTESRAVTDPEGNTTWVTRPVVVPVEREYFVTDPETGEWAPLSTYDPATGTLHDPNHHSAG [r14_122_JUSTAS],< -1 kcal/mol
3,SAGGSAGGSPAFTVPREVKVGDKPVTVEVDGEGRVTIRTPEGGSESEPVGSPGPAPVAFRITLKSAGGSAGG [r6_241_JUSTAS],< -1 kcal/mol
4,SAGGSAGGPRRISLMYKFSPDDGEMEPPSIEDLAKKFFPGAEPKNIDIEHNPNNGYMQVEIPIKSAGGSAGG [r6_81_TrROS],< -1 kcal/mol
5,SAGGSAGGSGSPSRPSPVLKFTFPKDPKPVTVPIPSGDPAAAAAAAAALEAAHPDTPVAVEAASAGGSAGGS [r12_601_JUSTAS],< -1 kcal/mol
6,SAGGKPPKIKIKVEHEPYPGNGRYYMEVELEDPDDGKPIEIPFRGDSPEEAEENAKEIAREIAKELKSAGGS [r8_480_TrROS],< -1 kcal/mol
7,SAGGSAGGSNWTIKVNIVEKPNGKKYIPITMRPPNGNTREGPMPADEIKDRFGMPAEDIAKAISAGGSAGGS [r20_235_TrROS],< -1 kcal/mol
8,SMPYLVRVLAELPDGELLGEAEAEVLPGEELVFSDPLPVRVRAVIYDPETDEPREVEADGRVGVLVVPVESA [r9_272_TrMRF],< -1 kcal/mol
9,SSVSFDPATGTTTVTTTTPTGPDSPVLTTTTTTLTTNPDGTVTTTTTTTTTTVAPAAPLLTPANLALRAALS [r1_4_JUSTAS],< -1 kcal/mol
10,SATVTVETTLSDVDTLLAAAEAAGWAVTRTQEPSSPLRRATITAPLPDGTAAPVTVTVDPASGRAVLVGSAG [r14_169_JUSTAS],< -1 kcal/mol
11,SAGGSAGGSAGNKPIMIKAEFPGNGREVEFPIRSPEQAKEFAKRLANQPGFPIKDVDIYPSAGGSAGGSAGG [r11_951_TrROS],< -1 kcal/mol
12,SAGGSAGGSAGGMTIRVVPVEITPDSSGVLRRDIEEVAAANPDAEVLETTPTSVLVRYKRSAGGSAGGSAGG [r11_771_JUSTAS],< -1 kcal/mol
13,SAGGSAGGSAGGPPIPIRIKLEHPDNGKKHTHEFPPGMSLKEVKNYMEKHPGYKIKDIEISAGGSAGGSAGG [r7_624_TrROS],< -1 kcal/mol
14,SAGGSAGGSAMWVRDIADELRKEGKPVKIEMRNPNGKEKEYTIKPGEPLPPGWDIEKIEYKSAGGSAGGSAG [r3_421_TrROS],< -1 kcal/mol
15,SAGGSAGGVEVEADPEYEVEVFEDPETGAVVAIVKGPDEVERALRFIPETGEPVELPLEEFEPLSAGGSAGG [r6_304_TrMRF],< -1 kcal/mol
16,SAGGSAGGSAGEPGFTVRVLKKDLPTGEFSEVEIEVPASVPLEEVIEALDPDQVVAVEVESAGGSAGGSAGG [r11_386_TrMRF],< -1 kcal/mol
17,SAGGSAGGSAGVIPFDSPEDAERAIEEAFRNGDPVTIHRRNPDGKHQTIPFKIKLPKNDPSAGGSAGGSAGG [r17_462_TrROS],< -1 kcal/mol
18,SAELVLASVEKKGDEVIAVTAFPDGLFVKVKTKDGKIFAAPLPAENIGPQVEALKKAFPGVEVEPFLAESAG [r14_528_TrMRF],< -1 kcal/mol
19,SAGGSAGGSVVIPESVISNMKEEEIRELIKKNPKPVLLVTENPEVRKKAEEIFKKEGYPLVVGSAGGSAGGS [r12_97_TrMRF],< -1 kcal/mol

row,Sequence,folding stability dG unfold
1,SAGGSAGGSAKKIEIEPMPNGWTVRIKGNDGKKREIPIPNPNQSISDIAKRAEDNGIDDVEISAGGSAGGSA [r18_83_TrROS],< -1 kcal/mol
2,SPAIVLATSDPSTRRRTVFVAQSHPPGPAVPDLGFDIPIGDNLYLGASISVSPSGPVNIDSIIVGPPDSLSA [r9_780_TrMRF],< -1 kcal/mol
3,SAGGQKITIDNVTPGMIRIRVPNGNEFEFPEIQKELQEHGNNQPPTADQIAEWLRKRNFPIKDIEISDSAGG [r13_610_TrROS],< -1 kcal/mol
4,SAGGSAGGSAGTTLLETEELPGPVRVTVERYKLPDGTLRVRTTEIDPSTGARHPREELVESAGGSAGGSAGG [r11_727_JUSTAS],< -1 kcal/mol
5,SAGKIKEIEMDPPHNQMTLELPEKGRKITINPNMGHLDIEPPDGKPREVPVPNPSDMKEAIKKVLKELKSAG [r5_467_TrROS],< -1 kcal/mol
6,SAGGSAGGSAGGSGSSVTTVTEEPGRRVVTRFVPETGEEEVLSTEEVPAPPLPLSPALLSAGGSAGGSAGGS [r4_21_JUSTAS],< -1 kcal/mol
7,SAGGPMVTWRIKFPGKKIEVMWNPDQMNVNIYDPDKPKEVPIPMPPGEPPTADDILDELKKDGFKIEPSAGG [r13_687_TrROS],< -1 kcal/mol
8,SAGGSAGGSVVPPEEEETVEKKETLTDPVTGKEYLSRRRVTYRPSKPEKVAEEEEIIPPDEPLSAGGSAGGS [r12_868_JUSTAS],< -1 kcal/mol
9,SAGGSAGGIKPGQRVRVKLEQWSPNGEPQKHTFPIKNIPPGFKPGQELTFPGPGHKWRIDEITRSAGGSAGG [r6_561_TrROS],< -1 kcal/mol
10,SAGGSAGGSAGGFKIEGNPMPDDDGPYWHIEVTHWRYNGGGPRPRKRTIMIKDPEDAKEFSAGGSAGGSAGG [r7_896_TrROS],< -1 kcal/mol
11,SAGGSAGGSAGKITIKPEGQDGNGMYYEIRLPDNGKTIQVPFPSPEDADRRAKKILKELFSAGGSAGGSAGG [r11_848_TrROS],< -1 kcal/mol
12,SAGGMVLSDVLPDGTVKPVSEEKIKEIVEKIEKEINAKIEVKIEKKWEGDKWVTTIPVTLIGLSPKLISAGG [r13_790_JUSTAS],< -1 kcal/mol
13,SAGGGMNEPVPKVTVTTTSVSVEPPPDLPGIAKVYTPTVITTDDEAVAEAIAEEIAAQPDVEYEDTGASAGG [r13_606_JUSTAS],< -1 kcal/mol
14,SAGGSAGGSAGMKIKLPNIPGAEVEIEKDPEVPDLYKIKIKNKETKEEIEITLPKEALKPSAGGSAGGSAGG [r17_341_TrROS_Hall],< -1 kcal/mol
15,SAGGSAGGSAGGSGMMVPTTVTITVPAPDGTPVRTVTITTTSPTATLEEIKARVAPFLASAGGSAGGSAGGS [r4_375_JUSTAS],< -1 kcal/mol
16,SAGGSAGGSAGGSKEITFPAREIAEKLGIPPGRPITPEFLNKIKHVETDENGWVTLKLDSAGGSAGGSAGGS [r4_369_TrROS],< -1 kcal/mol
17,SAGKIRIVDSPDQLENAPPGDIVIHHRPSPETGRPRVRLAKYPDGKWEPLARMDSDGKIELPKELKEAISAG [r5_490_TrROS],< -1 kcal/mol
18,SAGGSAGGSAGMVTTSETITVTVTLPTGPTETITVPVTTTVPVVPVSPEVAAADPAAVAALLSAGGSAGGSA [r18_114_JUSTAS],< -1 kcal/mol
19,SAGGSAGGSAGKMVEVRIEVDVPDADGRPVRVTFTAPLPLHPDGRIDVPAGRVRRVEVRGSAGGSAGGSAGG [r11_664_TrMRF],< -1 kcal/mol
